From publication PMC4010427, “Structural and Functional Similarity of Amphibian Constitutive Androstane Receptor with Mammalian Pregnane X Receptor” (PLoS ONE, 2014)

Tests used:
[1] = target: GAL4-DBD/PGC-1α-RID fusion protein (human PGC-1α, receptor interaction domain, amino acids 88-213) (UniProt Q9UBK2); assay: mammalian two-hybrid assay; conditions: COS7 cells; pM-PGC1a (black bars); no ligand; n = 9; empty pVP16-AD with pM-PGC1a est. 3.3 (red line); parent: est. 3.6; read off a plot
[2] = target: GAL4-DBD/RXRα-LBD fusion protein (human retinoid X receptor α, amino acids 226–462) (UniProt P19793); assay: mammalian two-hybrid assay; conditions: COS7 cells; GAL4-dependent pGL3G5 reporter; no ligand; n = 6; parent: est. 40; read off a plot
Sequence of GAL4-DBD/RXRα-LBD fusion protein (human retinoid X receptor α, amino acids 226–462) (P19793 226-462): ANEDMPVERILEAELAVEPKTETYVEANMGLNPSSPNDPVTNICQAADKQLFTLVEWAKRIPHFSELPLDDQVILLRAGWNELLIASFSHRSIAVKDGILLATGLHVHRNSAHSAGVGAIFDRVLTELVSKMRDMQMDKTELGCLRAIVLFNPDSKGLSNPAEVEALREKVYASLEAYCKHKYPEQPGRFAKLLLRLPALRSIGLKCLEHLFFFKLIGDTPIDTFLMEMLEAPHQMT

[3] = target: GAL4-DBD/SRC1-RID fusion protein (human coactivator SRC-1, receptor interaction domain, amino acids 583–783) (UniProt Q15788); assay: mammalian two-hybrid assay; conditions: COS7 cells; pM-SRC-1 (black bars); no ligand; n = 9; empty pVP16-AD with pM-SRC-1 est. 0.57 (red line); parent: est. 0.49; read off a plot
Sequence of GAL4-DBD/SRC1-RID fusion protein (human coactivator SRC-1, receptor interaction domain, amino acids 583–783) (Q15788 583-783): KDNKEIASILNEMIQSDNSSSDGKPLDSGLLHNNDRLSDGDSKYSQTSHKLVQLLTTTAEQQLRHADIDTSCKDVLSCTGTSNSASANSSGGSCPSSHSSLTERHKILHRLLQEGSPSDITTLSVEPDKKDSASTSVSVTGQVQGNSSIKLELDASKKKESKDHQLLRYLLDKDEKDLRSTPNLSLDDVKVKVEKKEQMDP

[4] = target: GST-tagged SRC-1 RID protein (recombinant human SRC-1, amino acids 583–783) (UniProt Q15788); assay: CARLA; conditions: n = 3, read off a plot; for other: fold induction (fold over DMSO only (=1)): 100 µM pregnanedione (log M = -4.0), parent: est. 74; for response: absence of ligand (DMSO only), parent: est. 0.10
Sequence of GST-tagged SRC-1 RID protein (recombinant human SRC-1, amino acids 583–783) (Q15788 583-783): as above

xlCARα = target: T1, xlCARα (Xenopus laevis, UniProt A0A1L8FCY0); assay: CARLA: ligand-dependent pull-down of […]-labelled receptor by GST-SRC-1 RID; conditions: pH 8.0, 4 °C overnight; agonist; indirect coactivator-dependent binding assay
T1 construct: gene nr1i3.L; full-length; 35S-Met labelled by in vitro transcription/translation (CARLA, with human GST-SRC-1 RID 583-783 as read-out) or expressed in HepG2 cells; LBD residues 145-423
T1 sequence (A0A1L8FCY0 19-441): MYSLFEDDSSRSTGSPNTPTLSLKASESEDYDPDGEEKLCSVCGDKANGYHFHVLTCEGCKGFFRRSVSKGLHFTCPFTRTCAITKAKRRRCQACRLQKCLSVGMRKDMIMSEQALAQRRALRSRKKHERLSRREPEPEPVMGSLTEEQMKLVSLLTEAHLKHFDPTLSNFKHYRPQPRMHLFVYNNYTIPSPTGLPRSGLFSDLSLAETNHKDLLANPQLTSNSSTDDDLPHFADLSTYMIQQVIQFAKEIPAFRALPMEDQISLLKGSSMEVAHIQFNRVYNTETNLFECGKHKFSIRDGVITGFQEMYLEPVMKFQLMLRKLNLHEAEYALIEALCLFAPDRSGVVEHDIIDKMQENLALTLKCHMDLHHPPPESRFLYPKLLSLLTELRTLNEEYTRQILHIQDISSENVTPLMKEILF

Sequence of GAL4-DBD/PGC-1α-RID fusion protein (human PGC-1α, receptor interaction domain, amino acids 88-213) (Q9UBK2 88-213): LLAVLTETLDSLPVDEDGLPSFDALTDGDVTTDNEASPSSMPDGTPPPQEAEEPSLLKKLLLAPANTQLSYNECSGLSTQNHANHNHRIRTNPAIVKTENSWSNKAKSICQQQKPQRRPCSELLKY

Row | Molecule | response [1] [rel pM/pVP16] | response (fold over empty vector pVP16-AD (=1)) [2] | response [3] [rel pM/pVP16] | other: fold induction (fold over DMSO only (=1)) [4] | response [4] | fold induction of SRC-1 interaction (xlCARα)
1 | full-length Xenopus laevis CARα, wild type, 35S-labelled Val315Ile | – | – | – | 10 | 0.09 % of input | –
2 | VP16-AD/xlCARα-LBD fusion protein, wild type (Xenopus laevis constitutive androstane receptor α, amino acids 145–423) Met272Val; Met316Phe | 5.5 | 59 | 0.77 | – | – | –
3 | full-length Xenopus laevis CARα, wild type, 35S-labelled Leu237Ile | – | – | – | 28 | 0.05 % of input | –
4 | CC(=O)[C@H]1CC[C@H]2[C@@H]3CC[C@@H]4CC(=O)CC[C@]4(C)[C@H]3CC[C@]12C [5β-pregnane-3,20-dione] | – | – | – | – | – | suggests that xlCARα binds pregnanedione with higher affinity than hsCAR
5 | full-length Xenopus laevis CARα, wild type, 35S-labelled Phe279Leu | – | – | – | 2 | 0.05 % of input | –
6 | full-length Xenopus laevis CARα, wild type, 35S-labelled Met272Val | – | – | – | 16 | 0.17 % of input | –
7 | VP16-AD/xlCARα-LBD fusion protein, wild type (Xenopus laevis constitutive androstane receptor α, amino acids 145–423) Tyr311Phe | 4.2 | 98 | 0.61 | – | – | –
8 | full-length Xenopus laevis CARα, wild type, 35S-labelled Phe297Tyr | – | – | – | – | 0.11 % of input | –
9 | VP16-AD/xlCARα-LBD fusion protein, wild type (Xenopus laevis constitutive androstane receptor α, amino acids 145–423) Thr305Val | 5.7 | 110 | 0.99 | – | – | –

More lines, main results first:

Row | response [1] [rel pM/pVP16] | response (fold over empty vector pVP16-AD (=1)) [2] | response [3] [rel pM/pVP16] | other: fold induction (fold over DMSO only (=1)) [4] | response [4] | Molecule | fold induction of SRC-1 interaction (xlCARα)
10 | 2.8 | 47 | 0.45 | – | – | VP16-AD/xlCARα-LBD fusion protein, wild type (Xenopus laevis constitutive androstane receptor α, amino acids 145–423) His295Leu | –
11 | – | – | – | – | 0.11 % of input | full-length Xenopus laevis CARα, wild type, 35S-labelled His295Leu | –
12 | 5 | 56 | 0.8 | – | – | VP16-AD/xlCARα-LBD fusion protein, wild type (Xenopus laevis constitutive androstane receptor α, amino acids 145–423) Met316Phe | –
13 | 5.5 | 55 | 0.71 | – | – | VP16-AD/xlCARα-LBD fusion protein, wild type (Xenopus laevis constitutive androstane receptor α, amino acids 145–423) Met272Val | –
14 | 2.8 | 41 | 0.38 | – | – | VP16-AD/xlCARα-LBD fusion protein, wild type (Xenopus laevis constitutive androstane receptor α, amino acids 145–423) Val315Ile | –
15 | – | – | – | – | 0.06 % of input | full-length Xenopus laevis CARα, wild type, 35S-labelled Tyr311Phe | –
16 | – | – | – | – | 0.11 % of input | full-length Xenopus laevis CARα, wild type, 35S-labelled Ser238Asn | –
